# Measured values reported in the nanobody polyreactivity screen of Harvey et al. (2022).
# Assay: yeast display, Sf9 membrane polyspecificity reagent, FACS + sequencing; frameworks hold sequencing errors
# Method in brief: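 Nanobodies from a synthetic yeast display library (Saccharomyces cerevisiae BJ5465), induced 36–48 hours with galactose, were stained 1 hour at 4 °C with 10% biotinylated, detergent-solubilized Sf9 membrane reagent, enriched on streptavidin microbeads, then FACS-sorted. Anti-HA (expression) and streptavidin (reagent binding) fluorescence set low and high (top ~1%) gates. Polyreactivity labels come from the gate of origin. Genes were colony-PCR amplified, MiSeq 2 × 250 sequenced and filtered by CDR length.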
row,Sequence,polyreactivity (PSR sort gate)
1,QVQLVESGGGLVQAGGSLRLSCAASGSTFDRNAMGWYRQAPWKERELVATINSDDSKNYADSVKGRFTISRDNAKNTVYLQMNSLKPEDTAVYYCAARLYVTPILSYVERYTNDYWGQGTQVTVSS,low polyreactivity
2,QVQLVESGGGLVQAGGSLRLSCAASGSTFDRNVMGWNRQAPGKERELVAAISRVSSTNYADSVKGRFTISRDNAKNTVYLQMHSLKPEDTAVYYCAADRAGSIMNYWGQGSQVTVSS,low polyreactivity
3,QVQLVESGGGLVQAGGSLRLSCAASGSTFDRNVMGWYRQAPGKERELVAAISRVSSTNYADSVKGRFTISRDNAKNTVYLQMNSLKPEDTAVYYCNARRESYYQRYRVDYWGQGTQVTVSS,low polyreactivity
4,QVQLVESGGGLVQAGGSLRLSCAASGSTFDRYGMGWYRQAPGKERELVAAITWSVGSTYYADSVKGRFTISRDNAKNTVYLQMNSLKPEDTAVYYCNAGVLGVYTSYNGDDYWGQGTQVTVST,low polyreactivity
5,QVQLVESGGGLVQAGGSLRLSCAASGSTFDRYGMGWYRQAPGKERELVARITSSGASTYYADSVKGRFTISRDNAMNTVYLQMNSQKPEDTAVYYCAADEGYPGDGDYWGQGTQVTVSS,low polyreactivity
6,QVQLVESGGGLVQAGGSLRLSCAASGSTFDSNAMGWYRQAPGKERELVAAIRFSGGSTNYADSVKGRFTISRDNAKNTVYLQMNSLKPEDTAVYYCAARYPNLRRRWYYYWGQGTQVTVSS,high polyreactivity
7,QVQLVESGGGLVQAGGSLRLSCAASGSTFDSNVMGWYRQAHGKERELLAAINYSGVRTYYADSVKGRFTISRDNAKNTVYLQMNSLKPEDTAVYYCNARLFSYRYPEGGYWGQGTQVTVSS,high polyreactivity
8,QVQLVESGGGLVQAGGSLRLSCAASGSTFDSYAMGWYRQAPGKERELVAALSYNGSSTDYADSVKGRFTISRDNAKNTVDEQMNSLKPEDTAVYYCAAAPGFSAGHHDYWGQGTQVTVSS,low polyreactivity
9,QVQLVESGGGLVQAGGSLRLSCAASGSTFDTNAMGWYRQAPGKERELVAAISWSRDRTYYADSVKGRFTISRDNAKNTVYLQMNSLNPEDTAVYYCNAYLSFRRQYGYWGQGTQGTVSS,high polyreactivity
10,QVQLVESGGGLVQAGGSLRLSCAASGSTFDTNDMGWDRQAPGKERELVAAISSGGDYADSVKGRFTISRDNAKNTVYLQLNSLKPEDTAVYYCAKADTKWGQGTQVTVSS,low polyreactivity
11,QVQLVESGGGLVQAGGSLRLSCAASGSTFDTYAKGWYRQAPGQERELVAAISYRGGNTYYADSVKGRFTISRDNAKNTVYLQMNSLKPEDTAVYYCNAGVSIGRSRRYDYWGQGTHVTVSS,low polyreactivity
12,QVQLVESGGGLVQAGGSLRLSCAASGSTFDTYAMGWYRQAPGKERELVAAINSGGGTNYADSVKGRFTISRDNAKNTVYLQMNSLKPEDTAVYYCATDSRRDAGGGDFDYWGQGTQVTVSS,low polyreactivity
13,QVQLVESGGGLVQAGGSLRLSCAASGSTFDTYAMGWYRQAPGKERELVAAISSGGSTNYADSVKGRFTISRDNAKNTVYLQMNSLKPEDTAVYYCADSYKSVFPVYGTLDEYWGQGTQVTVSS,low polyreactivity
14,QVQLVESGGGLVQAGGSLRLSCAASGSTFDVNAMGWYRQAPGKERELVAAISFSGGSTYYADSVKGRFTISRDNAKNTVYLQMNSLKPEDTAVYYCAAEEWRSYYEEYDYWGQGTQVTVSS,low polyreactivity
15,QVQLVESGGGLVQAGGSLRLSCAASGSTFDVNAMGWYRQAPGKERELVAAISWNSGSTYYADSVKGRFTISRDNAMITVFLQMNSLKPEDTAVYYCAATYGTGRRSKYGYWGQGSQVTVSS,high polyreactivity
16,QVQLVESGGGLVQAGGSLRLSCAASGSTFDVNAMGWYRQAPGKERELVAVITSGGSTNYADSVKGRFTISRDNAKNTVYLQMNRLKPEDTAVYYCAKDSRTLYDYWGQGTQVTVSS,low polyreactivity

row,Sequence,polyreactivity (PSR sort gate)
1,QVQLVESGGGLVQAGGSLRLSCAASGSTFDVYAMGWYRQAPGKERELVAAIRSSGGSTFYADSVKGRFTISRDNAKNIVYLQMNSLKPEDTAVYYCAARSFVVSGYNKYYEYGYWGQGTQVTVSS,low polyreactivity
2,QVQLVESGGGLVQAGGSLRLSCAASGSTFDVYAMGWYRQAPGKERELVAAITWDGDRTYYADSVKGRFTISRDNAKNTVYLQMNSLKPEDTAVYYCNVDTYVEYPHDYWGQGTQVTVSS,low polyreactivity
3,QVQLVESGGGLVQAGGSLRLSCAASGSTFDWYAMGWYRQAPGKERELVAAISRGSRTYYADSVKGRFTISRDNAKNTVYLQKNSLKPEDTAVYYCARDKPTSYPDYYYWGQGTQVTVSS,high polyreactivity
4,QVQLVESGGGLVQAGGSLRLSCAASGSTFDWYAMGWYRQAPGKERELVARIRWSGGSTYYADSVKGRFTISRDNAKNTVYLQMNSLKPEDTAVYYCAARTQTWPQYGYWGQGTQVTVSS,high polyreactivity
5,QVQLVESGGGLVQAGGSLRLSCAASGSTFDWYAMGWYRQATGKETELVAAISWSDTSTYYADSVKGRFTISRDNAKNTVYLKMNSLKPEDTAVYYCNDEALYYYDSYDYWGQGTQVTVSS,high polyreactivity
6,QVQLVESGGGLVQAGGSLRLSCAASGSTFDYNAMGWYRQAPGKERELVAAITSTGGNTYYADSVKGRFTISRDHAKNTDYLQMNSLKPEDTAVYYCNKDVARYPYGNFDYWGQGTQVTVSS,low polyreactivity
7,QVQLVESGGGLVQAGGSLRLSCAASGSTFDYNAMGWYRQAPGKERELVADITGSGASTSYADSVKGRFTISRDNAKNTVYLQMNSLKPEDTAVYFCAADQTPVGQVYYGTLSIRDYWGQGTQVTVSS,low polyreactivity
8,QVQLVESGGGLVQAGGSLRLSCAASGSTFDYNAMGWYRQAPGTERELVAAISRGGNTYYADSVKGRFTISRDNAKNTVYLQMNSLKPEDTAVYYCAKDSYGSYRFVRKRQKAYGYWGQGTQVTVSS,low polyreactivity
9,QVQLVESGGGLVQAGGSLRLSCAASGSTFDYYAMGWDRQAPGKERELVAAIRWSSGRTYYADSVKGRFTISRDNAKNTVYLQMHSLKPEDTAVYYCASAGHRGQGGPRYNYWGQGTQVTVSS,high polyreactivity
10,QVQLVESGGGLVQAGGSLRLSCAASGSTFDYYAMGWYRQAPGKERELVAAISRTGGRTYYADSVKGRFTISRDNAKNTVYLQMNSLKPEDTAVYYCATRNGRQYSVSYRYYYWGQGTQVTVSS,low polyreactivity
11,QVQLVESGGGLVQAGGSLRLSCAASGSTFDYYAMGWYRQAPGKERELVATISYSDGTTYYADSVKGRFTISRDNAKNTVYLQMNSLKPEDTAVYYCAADTYVYEEQNVWRMDYWGQGTQVTVSS,low polyreactivity
12,QVQLVESGGGLVQAGGSLRLSCAASGSTFDYYAMGWYRQAPGKERELVAVISSSGGSTYYADSVKGRFTISRDNAKNTVYLQMNSLKPEDTAVYYCAALYRNYGSSYAYYYWGQGTQVTVSS,low polyreactivity
13,QVQLVESGGGLVQAGGSLRLSCAASGSTFDYYDMGWYRQAPGKERELVATITSGGSTNYADSVKGRFTISRDNAKNTVYLQMNSLKPEDTAVYYCAADIGGDGEGYDYWGQGTQVTVSS,low polyreactivity
14,QVQLVESGGGLVQAGGSLRLSCAASGSTFDYYTMGWYRQAPGKERELVAAISYSGSRTYYADSVKGRFTISRDNAKNTVYLQMNSLKPEDTAVYYCAAVYRAKYGYWGQGTQVTVSS,high polyreactivity
15,QVQLVESGGGLVQAGGSLRLSCAASGSTFDYYTMGWYRQAPGKERELVAAITSGGSTYYADSVKGRFTISRDNAKNTVFLQMNSLKPEDTAVYYCAAGYIWFRKFQFDYWGQGTQVTVSS,high polyreactivity
16,QVQLVESGGGLVQAGGSLRLSCAASGSTFEANAMGRYRQAPGKERELVAVITWTGGSTYYADSVKGRFTISRDNAKNTVYLQMNSLKPEDTAVYYCAADGVVPGRFFWPAHEYDYWGQGTQVTVSS,low polyreactivity
